Source: article PMC2779547

Biological target: KcsA R64C-SL (potassium ion channel KcsA, R64C mutant, spin-labelled with MTSL) (UniProt P0A334)
Assay: PELDOR

stoichiometry N: 4
Substance: KcsA R64C-SL (potassium ion channel KcsA, R64C mutant, spin-labelled with MTSL) (from UniProt P0A334 1-160) (natural protein)
